Tests used:
Experiment in all cases: cell-based or functional assay
[1] = molecular target: HIV-1 ADA (R5) env (gp120 and gp41) (HIV-1 strain ADA)
[2] = molecular target: HIV-1 ADA (R5) env (gp120 and gp41) (HIV-1 strain ADA); remark: listed apart in the source
[3] = molecular target: HIV-1 HXB2 env (X4) (gp120 and gp41) (HIV-1 strain HXB2, UniProt P04578 33-856; P04578 33-856)
[4] = molecular target: HIV-1 JRFL (R5) env (gp120 and gp41) (HIV-1 strain JRFL)

Row | Binder | R5 fusion assay IC50 [1] | Inhibition of HIV single round pseudovirus in TZM-bl cells, ADA (R5), IC50 [2] | R5 fusion with competition IC50 [1] | R5 fusion with wash-out on ADA cells IC50 [1] | R5 fusion with wash-out on P5L cells IC50 [1] | X4 fusion assay IC50 [3] | Inhibition of HIV single round pseudovirus in TZM-bl cells, ADA (R5), IC90 [2] | Inhibition of HIV single round pseudovirus in TZM-bl cells, JRFL (R5), IC50 [4] | Inhibition of HIV single round pseudovirus in TZM-bl cells, JRFL (R5), IC90 [4]
1 | Ac-HTTWMEWDREINNYTSLIHSLIEESQNLQEKNEQELL-NH2 [C37(Q652L) (N-acetylated, C-term amidated)] | 28.2 nM | 114 nM | – | – | – | – | – | – | –
2 | C37-linker-CD4M33C1F23 (designed binder) HTTWMEWDREINNYTSLIHSLIEESQNQQEKNEQELLSSSGGGGSGGGGSSSSCNLHFCQLRCKSLGLLGKCAGSFCACV | 6.83 nM | 2.33 nM | 7.78 nM | 77.8 nM | 561 nM | 2.3 nM | 17.3 nM | 2.25 nM | 24.3 nM
